Measurements from the supplement of paper PMC10126150.
± gives the standard deviation of the averaged measurements.

Test system: ATP
Assay: switch fluorescence ratio, 500 uM ATP over buffer (Cy3 cluster intensity, sum of 5 cycles each) (fold (ratio)); higher = stronger signal-on switching upon ATP binding; sequences stand for … in TCGTCGGCAGCGTCAGATGTGTATAAGAGACAGTTTTTTTTTTTTTTTTTTTTTTTTT…TC
Conditions: aptamer strand: ATP DNA aptamer (quencher-CACCTGGGGGAGTATTGCGGAGGAAGG + anchor), 100 nM annealed; ATP concentration: 500 uM
Procedure, shortened: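 The fluorescence ratio divides summed target-cycle Cy3 intensity by summed buffer-cycle Cy3 intensity for each cluster and is averaged per switch-domain sequence. Cy3-labelled switching-strand clusters on a modified Illumina MiSeq flow-cell were annealed to 100 nM quencher-labelled ATP aptamer, then imaged in selection buffer and again after 15 min with 500 uM ATP at 22 °C. Five such cycles were run, with NaOH stripping and re-annealing between them, and clusters outside 100-1000 RFU were excluded.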
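Note: ATP exposure 15 min at 22 °C before imaging.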

Row | Sequence | switch fluorescence ratio
1 | CCCGGGGGCA | 1.21 ± 0.25
2 | CCCGGGTAAG | 1.03 ± 0.024
3 | CCCGGGTAGT | 1.12 ± 0.12
4 | CCCGGGTCTG | 1.04 ± 0.035
5 | CCCGGGTTAT | 0.9942 ± 0.0075
6 | CCCGGTATTG | 1.017 ± 0.007
7 | CCCGGTCGGC | 0.983 ± 0.0038
8 | CCCTAGGCTT | 1.13 ± 0.018
9 | CCCTCGCGGT | 1.78 ± 0.027
10 | CCCTGAATTG | 0.984 ± 0.053
11 | CCCTGAGGAT | 1.01 ± 0.031
12 | CCCTTGGTTA | 1.03 ± 0.032
13 | CCCTTGTACG | 1.03 ± 0.036
14 | CCGAAACTTG | 1.07 ± 0.038
15 | CCGAACGTTT | 2.31 ± 0.47
16 | CCGAAGGGTA | 1.1 ± 0.022
17 | CCGAATACCA | 1.61 ± 0.13
18 | CCGAGAAGAG | 1.58 ± 0.021
19 | CCGAGCGCTT | 4.69 ± 1.4
20 | CCGAGTATGT | 1.19 ± 0.034
21 | CCGAGTTGTG | 1.05 ± 0.041
22 | CCGATGAGCT | 1.42 ± 0.035
23 | CCGATTTTTA | 0.977 ± 0.053
24 | CCGCAGGGTA | 1.259 ± 0.0092
25 | CCGCATGGGG | 1.49 ± 0.057

Row | Sequence | switch fluorescence ratio
26 | CCGCATTGGG | 3.35 ± 0.93
27 | CCGCCGAGGT | 1.68 ± 0.034
28 | CCGCGACAAG | 2.18 ± 0.086
29 | CCGCTAGTGG | 1.196 ± 0.0036
30 | CCGCTCGAAT | 3.36 ± 0.38
31 | CCGCTCGGGG | 1.05 ± 0.053
32 | CCGCTGGATA | 1.51 ± 0.18
33 | CCGCTGTTTT | 1.16 ± 0.23
34 | CCGCTTTTTT | 1.28 ± 0.23
35 | CCGGAACATG | 1.23 ± 0.058
36 | CCGGACGGAG | 1.04 ± 0.026
37 | CCGGAGGGGT | 1.38 ± 0.018
38 | CCGGATATGG | 1.135 ± 0.0024
39 | CCGGCACCTG | 1.02 ± 0.025
40 | CCGGCATCGG | 1.02 ± 0.059
41 | CCGGCGGAAG | 1.003 ± 0.0011
42 | CCGGCGTGGC | 1.36 ± 0.082
43 | CCGGCTAGTG | 1.03 ± 0.034
44 | CCGGCTGAGG | 1.03 ± 0.017
45 | CCGGCTTTCC | 1.15 ± 0.027
46 | CCGGGATCTT | 1.05 ± 0.013
47 | CCGGGCCAGG | 1.255 ± 0.0081
48 | CCGGGCGTGG | 1.09 ± 0.025
49 | CCGGGCTCTG | 1.06 ± 0.013
50 | CCGGGGAGTG | 1.14 ± 0.25

Row | Sequence | switch fluorescence ratio
51 | CCGGGGCCTG | 1.05 ± 0.095
52 | CCGGGGGACC | 1.04 ± 0.021
53 | CCGGGGGCGA | 2.64 ± 1.4
54 | CCGGGGGCTG | 1.04 ± 0.068
55 | CCGGGGGGGA | 1.13 ± 0.23
56 | CCGGGGGGGC | 1.32 ± 0.66
57 | CCGGGGGTTC | 1.05 ± 0.062
58 | CCGGGGGTTG | 1.04 ± 0.057
59 | CCGGGGTCGA | 1.57 ± 0.77
60 | CCGGGTATCC | 1.19 ± 0.18
61 | CCGGGTCTGG | 0.992 ± 0.013
62 | CCGGGTGCTA | 2.36 ± 1.4
63 | CCGGGTGGGT | 1.11 ± 0.13
64 | CCGGGTGGTA | 1.17 ± 0.015
65 | CCGGTAAGTC | 1.27 ± 0.026
66 | CCGGTAGGGT | 1.36 ± 0.61
67 | CCGGTATTTG | 1.021 ± 0.0077
68 | CCGGTCTATT | 1 ± 0.048
69 | CCGGTCTTGA | 1.01 ± 0.039
70 | CCGGTGTGTA | 1.03 ± 0.029
71 | CCGGTGTGTT | 1.03 ± 0.086
72 | CCGGTTAAGC | 1.2 ± 0.057
73 | CCGGTTAGGG | 0.991 ± 0.029
74 | CCGGTTCAGG | 1.05 ± 0.016
75 | CCGGTTGTGG | 1.01 ± 0.02

Row | Sequence | switch fluorescence ratio
76 | CCGGTTGTTG | 1.027 ± 0.0079
77 | CCGTATGTTT | 1.11 ± 0.091
78 | CCGTCATCTG | 1.04 ± 0.029
79 | CCGTCATTGT | 1.11 ± 0.02
80 | CCGTCTACGC | 1.16 ± 0.048
81 | CCGTCTGTTG | 1.03 ± 0.029
82 | CCGTGAATAT | 2.21 ± 0.083
83 | CCGTGGAAAC | 1.14 ± 0.026
84 | CCGTGGTATA | 1.151 ± 0.0068
85 | CCGTGTATTT | 1.05 ± 0.052
86 | CCGTGTCATT | 1.013 ± 0.0023
87 | CCGTGTGGCT | 1.027 ± 0.0022
88 | CCGTGTGGGT | 1.01 ± 0.018
89 | CCGTGTGTCA | 1.03 ± 0.029
90 | CCGTGTTTCT | 0.9916 ± 0.0033
91 | CCGTTCTCGC | 1.31 ± 0.048
92 | CCGTTGAGCT | 1.112 ± 0.01
93 | CCGTTGGCCT | 1.042 ± 0.0065
94 | CCGTTGTGCG | 1.02 ± 0.027
95 | CCGTTGTGGT | 1.05 ± 0.068
96 | CCGTTTAGAT | 1.01 ± 0.011
97 | CCGTTTTAGC | 1.12 ± 0.12
98 | CCGTTTTTGT | 0.9922 ± 0.006
99 | CCTACGGTGG | 1.04 ± 0.04
100 | CCTACTTGGC | 1.16 ± 0.05

Row | Sequence | switch fluorescence ratio
101 | CCTAGGCTTT | 1.117 ± 0.0063
102 | CCTAGGTCAT | 1.12 ± 0.15
103 | CCTATGCAGT | 5.33 ± 0.3
104 | CCTATGGGGG | 1.49 ± 0.66
105 | CCTATGTGCT | 1.038 ± 0.0059
106 | CCTATTAGG | 1 ± 0.011
107 | CCTCAGGGGC | 2.39 ± 0.57
108 | CCTCATTTTT | 0.988 ± 0.0099
109 | CCTCCAGGGT | 2.5 ± 0.92
110 | CCTCGTAGGT | 1.07 ± 0.024
111 | CCTCTCCGTA | 1.32 ± 0.083
112 | CCTCTGGGGG | 1.32 ± 0.19
113 | CCTGAGTTCG | 1.39 ± 0.21
114 | CCTGCGTCTG | 1.9 ± 0.065
115 | CCTGGAGTTA | 1.04 ± 0.1
116 | CCTGGCGTCG | 1.005 ± 0.0083
117 | CCTGGGGAGT | 1.04 ± 0.034
118 | CCTGGGGATC | 1.15 ± 0.098
119 | CCTGGGGCCA | 1.03 ± 0.038
120 | CCTGGGGGTG | 1.14 ± 0.074
121 | CCTGGGGGTT | 1.6 ± 0.79
122 | CCTGGTCGAC | 0.986 ± 0.015
123 | CCTGGTGAGG | 1.04 ± 0.072
124 | CCTGGTGCAT | 2.15 ± 0.056
125 | CCTGGTTGTG | 0.992 ± 0.029

Row | Sequence | switch fluorescence ratio
126 | CCTGTGAGTT | 0.986 ± 0.012
127 | CCTGTTGGGA | 1.01 ± 0.037
128 | CCTGTTTCTA | 1.17 ± 0.23
129 | CCTGTTTGTA | 1.01 ± 0.066
130 | CCTTACGGCA | 1.53 ± 0.068
131 | CCTTACTTTT | 0.998 ± 0.036
132 | CCTTATTAGG | 1.002 ± 0.0075
133 | CCTTGCACG | 1.18 ± 0.22
134 | CCTTGGCCGA | 1.17 ± 0.0041
135 | CCTTGGGCTT | 1.04 ± 0.031
136 | CCTTGGTACA | 1.03 ± 0.015
137 | CCTTGGTGAG | 1.01 ± 0.014
138 | CCTTTAGGTT | 1 ± 0.049
139 | CCTTTCATGC | 1.65 ± 0.16
140 | CCTTTGGCAG | 1.22 ± 0.06
141 | CCTTTGTGAT | 1.499 ± 0.0089
142 | CCTTTTATTC | 1.01 ± 0.03
143 | CCTTTTCAGG | 1.03 ± 0.023
144 | CCTTTTGCGC | 1.31 ± 0.012
145 | CCTTTTGGTG | 1.38 ± 0.44
146 | CCTTTTGTAC | 1.386 ± 0.011
147 | CCTTTTTCTT | 1.04 ± 0.029
148 | CCTTTTTGT | 0.993 ± 0.027
149 | CGAAAAAGAT | 1.04 ± 0.079
150 | CGAAAAGTTG | 1.01 ± 0.048

Row | Sequence | switch fluorescence ratio
151 | CGAAAGCTTG | 1.05 ± 0.02
152 | CGAAAGTTTA | 1.008 ± 0.0021
153 | CGAAATCCTT | 1.05 ± 0.039
154 | CGAACGAAAA | 0.992 ± 0.04
155 | CGAACGGGGG | 1 ± 0.032
156 | CGAACTGGGT | 1.03 ± 0.028
157 | CGAACTGTGG | 0.9673 ± 0.009
158 | CGAACTTGGA | 0.9882 ± 0.0074
159 | CGAAGATTTT | 1.05 ± 0.022
160 | CGAAGGGACG | 1.05 ± 0.081
161 | CGAAGGGGGA | 0.995 ± 0.021
162 | CGAAGGTTTT | 1.02 ± 0.015
163 | CGAAGTACAT | 1.16 ± 0.0019
164 | CGAAGTAGAG | 1.029 ± 0.0064
165 | CGAATAATCA | 0.982 ± 0.053
166 | CGAATAGCGG | 0.9757 ± 0.002
167 | CGAATATTAA | 0.994 ± 0.013
168 | CGAATATTTG | 0.996 ± 0.026
169 | CGAATCAATC | 2.51 ± 0.44
170 | CGAATGTTCG | 0.998 ± 0.035
171 | CGAATTAAAC | 0.99 ± 0.029
172 | CGAATTTTTG | 0.982 ± 0.018
173 | CGACAAAGCC | 1.28 ± 0.014
174 | CGACGAAACT | 1.15 ± 0.021
175 | CGACGAGGCT | 1.21 ± 0.024

Row | Sequence | switch fluorescence ratio
176 | CGACGGGCAG | 1.01 ± 0.042
177 | CGACGTGGGA | 1.042 ± 0.0055
178 | CGACGTGTGG | 1.02 ± 0.03
179 | CGACTGTTTT | 1.02 ± 0.015
180 | CGACTTACAT | 1.24 ± 0.057
181 | CGAGAAAGAG | 0.983 ± 0.077
182 | CGAGAAGTTT | 1.005 ± 0.0081
183 | CGAGACCACA | 1.05 ± 0.043
184 | CGAGACGGGG | 0.959 ± 0.042
185 | CGAGAGCCAC | 1.13 ± 0.047
186 | CGAGATGTGG | 1.02 ± 0.011
187 | CGAGCATGTA | 1.168 ± 0.0052
188 | CGAGCCTTGT | 1.01 ± 0.04
189 | CGAGCGGGGG | 1.01 ± 0.047
190 | CGAGCTGCAT | 1.08 ± 0.011
191 | CGAGGCCTGG | 1 ± 0.011
192 | CGAGGCTCCG | 1.05 ± 0.026
193 | CGAGGGAGTA | 0.993 ± 0.035
194 | CGAGGGGATT | 1.25 ± 0.54
195 | CGAGGGGTTC | 0.9908 ± 0.0044
196 | CGAGGGGTTG | 1 ± 0.04
197 | CGAGGGTAGT | 1.01 ± 0.025
198 | CGAGGGTCTC | 1.01 ± 0.029
199 | CGAGGTACTG | 1.01 ± 0.0034
200 | CGAGGTAGCT | 1 ± 0.021
